# Values joined by “and” are separate entries in the source; they are usually repeats but may differ in a detail not shown here. Equal values may be shown once.
# Experiments:
# [1] = molecular target: FcγRIIIA-streptavidin fusion protein (tetramer) (human; Streptomyces avidinii) (UniProt P08637); test: ELISA: antibody captured on protein A/G, FcγRIIIA tetramer (streptavidin fusion), biotin-HRP, OD450
# [2] = molecular target: FcγRIIIA (soluble receptor used as analyte in the BIAcore runs) (human) (UniProt P08637); test: BIAcore run 2, IgG immobilized, soluble FcγRIIIA, steady-state isotherm
# [3] = molecular target: FcγRIIIA (soluble receptor used as analyte in the BIAcore runs) (human) (UniProt P08637); test: BIAcore run 1, IgG immobilized, soluble FcγRIIIA, steady-state isotherm
# [4] = molecular target: FcγRIIB-streptavidin fusion protein (tetramer) (human; Streptomyces avidinii) (UniProt P31994); test: ELISA: antibody captured on protein A/G, FcγRIIB-streptavidin, biotin-HRP, OD450
# [5] = molecular target: FcγRIIIA (soluble receptor used as analyte in the BIAcore runs) (human) (UniProt P08637); test: BIAcore run 2, IgG immobilized, soluble FcγRIIIA, Scatchard plot
# [6] = molecular target: FcγRIIIA (soluble receptor used as analyte in the BIAcore runs) (human) (UniProt P08637); test: BIAcore run 1, IgG immobilized, soluble FcγRIIIA, Scatchard plot
# Chain of FcγRIIIA (soluble receptor used as analyte in the BIAcore runs) (human) (P08637 17-208): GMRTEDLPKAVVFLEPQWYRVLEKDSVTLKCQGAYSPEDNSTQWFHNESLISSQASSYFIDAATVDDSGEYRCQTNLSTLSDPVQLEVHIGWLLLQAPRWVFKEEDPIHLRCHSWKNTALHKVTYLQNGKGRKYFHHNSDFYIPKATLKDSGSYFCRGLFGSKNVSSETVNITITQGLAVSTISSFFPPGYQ
Substance,EC50 (read off the curve) [1] [µg/mL],EC50 (read off the curve) [4],also measured
"3F2-1M (3F2 Fc variant I332E, IgG1) (from UniProt P01857 1-330) (antibody)",0.05,,
"3F2-3M (3F2 Fc variant S239D/A330L/I332E, IgG1) (from UniProt P01857 1-330) (antibody)",0.05,,
Vitaxin® (wild type IgG1 antibody),,0.4 µg/mL and 0.3 µg/mL,Kd [2]: 8.9 µM; Kd [3]: 3.47 µM; Kd [5]: 7.6 µM; Kd [6]: 3.26 µM
"Vitaxin®-1M (Vitaxin® Fc variant I332E, IgG1) (from UniProt P01857 1-330) (antibody)",,0.3 µg/mL,
